Data on one molecule can be found in article PMC3653949, “Dissection of Agonistic and Blocking Effects of CD200 Receptor Antibodies” (PLoS ONE, 2013).

The target in the test is T1, CD200R(1)-rCD4d3+4 (extracellular domains of mouse CD200R allele 1 fused to rat CD4 domains 3 and 4) (mouse, UniProt Q9ES57 26-238, biotin at the biotinylation site).
T1 construct: mouse CD200R, allele CD200R(1) of C57BL/6 mice, the two extracellular domains; also called mCD200R; CD200R(1) rCD4d3+d4; source: 293T cells, transfected (pEF-BOS), tissue culture supernatant concentrated and biotinylated
T1 sequence (looked up): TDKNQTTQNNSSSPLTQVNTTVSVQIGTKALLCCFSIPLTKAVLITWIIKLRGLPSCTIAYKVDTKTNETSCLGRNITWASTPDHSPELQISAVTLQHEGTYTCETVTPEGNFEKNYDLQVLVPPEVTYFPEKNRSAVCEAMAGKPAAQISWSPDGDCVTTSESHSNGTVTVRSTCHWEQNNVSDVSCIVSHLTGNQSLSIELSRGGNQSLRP
Nature of the test: SPR; biotinylated CD200R(1)-rCD4d3+4, CD200R(2)-rCD4d3+4 and rCD4d3+4 from tissue culture supernatants immobilized on streptavidin coupled CM5 chip (726, 704, 681 RU); purified, gel filtered CD200-rCD4d3+4 (0.75 µM) passed over; BIAcore 3000, 25°C. As to conditions: both partners purified. Background: Surface plasmon resonance follows binding to a sensor surface in real time, without labels.

B1: mouse CD200-rCD4d3+4 (extracellular domains of mouse CD200 fused to rat CD4 domains 3 and 4) (ligand, UniProt O54901 31-232, looked up)
chain: QVEVVTQDERKALHTTASLRCSLKTSQEPLIVTWQKKKAVSPENMVTYSKTHGVVIQPAYKDRINVTELGLWNSSITFWNTTLEDEGCYMCLFNTFGSQKVSGTACLTLYVQPIVHLHYNYFEDHLNITCSATARPAPAISWKGTGTGIENSTESHFHSNGTTSVTSILRVKDPKTQVGKEVICQVLYLGNVIDYKQSLDKG
modifications: biotin at the biotinylation site (form put on streptavidin coated fluorescent beads)
notes: mouse CD200, extracellular domains; also called soluble CD200; soluble purified CD200; source: 293T cells, transfected (pEF-BOS), tissue culture supernatant concentrated and biotinylated (on beads); purified and gel filtered (SPR)
As to B1, the binding result was “binds”.
